Measurements reported in patent publication US20150119341A1 (PALATIN TECHNOLOGIES, published 2015).
Where two headings read alike, the source gives them in different places. [ ]: non-standard residue; d: D form. Nle = CCCC[C@H](N)C(=O)O

B1: Ac-Nle-Ala-His-D-Phe-Arg-Ala-Trp-OH (peptide)
peptide: Ac-[Nle]AH[dF]RAW-OH
SMILES: CCCC[C@H](NC(C)=O)C(=O)N[C@@H](C)C(=O)N[C@@H](Cc1c[nH]cn1)C(=O)N[C@H](Cc1ccccc1)C(=O)N[C@@H](CCCNC(=N)N)C(=O)N[C@@H](C)C(=O)N[C@@H](Cc1c[nH]c2ccccc12)C(=O)O
notes: synthetic linear peptide
B2: Ac-Nle-D-Phe-Arg-Ala-Trp-NH2 (peptide)
peptide: Ac-[Nle][dF]RAW-NH2
SMILES: CCCC[C@H](NC(C)=O)C(=O)N[C@H](Cc1ccccc1)C(=O)N[C@@H](CCCNC(=N)N)C(=O)N[C@@H](C)C(=O)N[C@@H](Cc1c[nH]c2ccccc12)C(N)=O
B3: Ac-Nle-Ala-His-D-Phe-Arg-D-Pro-Trp-NH2 (peptide)
peptide: Ac-[Nle]AH[dF]R[dP]W-NH2
SMILES: CCCC[C@H](NC(C)=O)C(=O)N[C@@H](C)C(=O)N[C@@H](Cc1c[nH]cn1)C(=O)N[C@H](Cc1ccccc1)C(=O)N[C@@H](CCCNC(=N)N)C(=O)N1CCC[C@@H]1C(=O)N[C@@H](Cc1c[nH]c2ccccc12)C(N)=O
B4: Ac-Nle-Ala-His-Phe-Arg-Ala-Trp-NH2 (peptide)
peptide: Ac-[Nle]AHFRAW-NH2
SMILES: CCCC[C@H](NC(C)=O)C(=O)N[C@@H](C)C(=O)N[C@@H](Cc1c[nH]cn1)C(=O)N[C@@H](Cc1ccccc1)C(=O)N[C@@H](CCCNC(=N)N)C(=O)N[C@@H](C)C(=O)N[C@@H](Cc1c[nH]c2ccccc12)C(N)=O
notes: synthetic linear peptide
B5: Ac-Nle-Ala-His-Phe-Arg-Gly-Trp-NH2 (peptide)
peptide: Ac-[Nle]AHFRGW-NH2
SMILES: CCCC[C@H](NC(C)=O)C(=O)N[C@@H](C)C(=O)N[C@@H](Cc1c[nH]cn1)C(=O)N[C@@H](Cc1ccccc1)C(=O)N[C@@H](CCCNC(=N)N)C(=O)NCC(=O)N[C@@H](Cc1c[nH]c2ccccc12)C(N)=O
notes: synthetic linear peptide
B6: Ac-Nle-Ala-His-D-Phe-Arg-Ala-D-Trp-NH2 (peptide)
peptide: Ac-[Nle]AH[dF]RA[dW]-NH2
SMILES: CCCC[C@H](NC(C)=O)C(=O)N[C@@H](C)C(=O)N[C@@H](Cc1c[nH]cn1)C(=O)N[C@H](Cc1ccccc1)C(=O)N[C@@H](CCCNC(=N)N)C(=O)N[C@@H](C)C(=O)N[C@H](Cc1c[nH]c2ccccc12)C(N)=O
B7: Ac-Nle-Ala-His-D-Phe-Arg-Ala-Trp-NH2 (peptide)
peptide: Ac-[Nle]AH[dF]RAW-NH2
SMILES: CCCC[C@H](NC(C)=O)C(=O)N[C@@H](C)C(=O)N[C@@H](Cc1c[nH]cn1)C(=O)N[C@H](Cc1ccccc1)C(=O)N[C@@H](CCCNC(=N)N)C(=O)N[C@@H](C)C(=O)N[C@@H](Cc1c[nH]c2ccccc12)C(N)=O
notes: synthetic linear peptide
B8: Ac-Nle-Ala-His-D-Phe-Arg-Pro-Trp-NH2 (peptide)
peptide: Ac-[Nle]AH[dF]RPW-NH2
SMILES: CCCC[C@H](NC(C)=O)C(=O)N[C@@H](C)C(=O)N[C@@H](Cc1c[nH]cn1)C(=O)N[C@H](Cc1ccccc1)C(=O)N[C@@H](CCCNC(=N)N)C(=O)N1CCC[C@H]1C(=O)N[C@@H](Cc1c[nH]c2ccccc12)C(N)=O
notes: synthetic linear peptide
B9: Ac-Nle-Ala-Phe-D-Phe-Arg-Ala-Trp-NH2 (peptide)
peptide: Ac-[Nle]AF[dF]RAW-NH2
SMILES: CCCC[C@H](NC(C)=O)C(=O)N[C@@H](C)C(=O)N[C@@H](Cc1ccccc1)C(=O)N[C@H](Cc1ccccc1)C(=O)N[C@@H](CCCNC(=N)N)C(=O)N[C@@H](C)C(=O)N[C@@H](Cc1c[nH]c2ccccc12)C(N)=O
notes: synthetic linear peptide
B10: Ac-Nle-Ala-Ala-D-Phe-Arg-Ala-Trp-NH2 (peptide)
peptide: Ac-[Nle]AA[dF]RAW-NH2
SMILES: CCCC[C@H](NC(C)=O)C(=O)N[C@@H](C)C(=O)N[C@@H](C)C(=O)N[C@H](Cc1ccccc1)C(=O)N[C@@H](CCCNC(=N)N)C(=O)N[C@@H](C)C(=O)N[C@@H](Cc1c[nH]c2ccccc12)C(N)=O
notes: synthetic linear peptide
B11: Ac-Nle-Ala-His-D-Phe-Ala-Ala-Trp-NH2 (peptide)
peptide: Ac-[Nle]AH[dF]AAW-NH2
SMILES: CCCC[C@H](NC(C)=O)C(=O)N[C@@H](C)C(=O)N[C@@H](Cc1c[nH]cn1)C(=O)N[C@H](Cc1ccccc1)C(=O)N[C@@H](C)C(=O)N[C@@H](C)C(=O)N[C@@H](Cc1c[nH]c2ccccc12)C(N)=O
notes: synthetic linear peptide
B12: Ac-Nle-Ala-Arg-D-Phe-Arg-Ala-Trp-NH2 (peptide)
peptide: Ac-[Nle]AR[dF]RAW-NH2
SMILES: CCCC[C@H](NC(C)=O)C(=O)N[C@@H](C)C(=O)N[C@@H](CCCNC(=N)N)C(=O)N[C@H](Cc1ccccc1)C(=O)N[C@@H](CCCNC(=N)N)C(=O)N[C@@H](C)C(=O)N[C@@H](Cc1c[nH]c2ccccc12)C(N)=O
notes: synthetic linear peptide
B13: Ac-Nle-Ala-His-D-Phe-Arg-Pro-D-Trp-NH2 (peptide)
peptide: Ac-[Nle]AH[dF]RP[dW]-NH2
SMILES: CCCC[C@H](NC(C)=O)C(=O)N[C@@H](C)C(=O)N[C@@H](Cc1c[nH]cn1)C(=O)N[C@H](Cc1ccccc1)C(=O)N[C@@H](CCCNC(=N)N)C(=O)N1CCC[C@H]1C(=O)N[C@H](Cc1c[nH]c2ccccc12)C(N)=O
B14: Ac-Nle-Ala-D-Phe-Arg-Ala-Trp-NH2 (peptide)
peptide: Ac-[Nle]A[dF]RAW-NH2
SMILES: CCCC[C@H](NC(C)=O)C(=O)N[C@@H](C)C(=O)N[C@H](Cc1ccccc1)C(=O)N[C@@H](CCCNC(=N)N)C(=O)N[C@@H](C)C(=O)N[C@@H](Cc1c[nH]c2ccccc12)C(N)=O
notes: synthetic linear peptide
B15: Ac-Nle-Ala-His-D-Phe-Arg-D-Pro-D-Trp-NH2 (peptide)
peptide: Ac-[Nle]AH[dF]R[dP][dW]-NH2
SMILES: CCCC[C@H](NC(C)=O)C(=O)N[C@@H](C)C(=O)N[C@@H](Cc1c[nH]cn1)C(=O)N[C@H](Cc1ccccc1)C(=O)N[C@@H](CCCNC(=N)N)C(=O)N1CCC[C@@H]1C(=O)N[C@H](Cc1c[nH]c2ccccc12)C(N)=O
B16: Ac-Nle-His-Phe-Arg-Ala-Trp-NH2 (peptide)
peptide: Ac-[Nle]HFRAW-NH2
SMILES: CCCC[C@H](NC(C)=O)C(=O)N[C@@H](Cc1c[nH]cn1)C(=O)N[C@@H](Cc1ccccc1)C(=O)N[C@@H](CCCNC(=N)N)C(=O)N[C@@H](C)C(=O)N[C@@H](Cc1c[nH]c2ccccc12)C(N)=O
notes: synthetic linear peptide

Tests used:
[1] = target: T1, human melanocortin-1 receptor (hMCR-1) expressed by the human melanoma cell line HBL (human, UniProt Q01726 1-317); assay: cell-based or functional assay
T1 sequence (Q01726 whole entry): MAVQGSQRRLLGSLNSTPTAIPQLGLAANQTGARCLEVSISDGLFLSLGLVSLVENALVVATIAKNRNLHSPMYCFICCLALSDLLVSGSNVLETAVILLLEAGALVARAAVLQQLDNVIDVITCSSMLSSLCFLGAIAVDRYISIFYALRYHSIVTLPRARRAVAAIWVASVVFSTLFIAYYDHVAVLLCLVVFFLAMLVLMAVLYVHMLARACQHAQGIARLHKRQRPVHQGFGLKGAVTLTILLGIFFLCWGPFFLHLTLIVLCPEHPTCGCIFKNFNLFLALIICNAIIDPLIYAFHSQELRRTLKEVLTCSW

[2] = target: T2, recombinant human melanocortin-1 receptor (hMCR-1a) in membrane homogenates of HEK-293 cells (human, UniProt Q01726 1-317); assay: competitive inhibition of [I125]-NDP-alpha-MSH, hMCR-1 HEK-293 membranes
T2 construct: whole, on cells; Used as membrane homogenates, not intact cells; also called hMCR-la; MC-1
T2 sequence (Q01726 whole entry): as above
Protocol: (§1) A competitive inhibition binding assay was performed using membrane homogenates prepared from HEK-293 cells that express recombinant hMCR-la or hMCR-4 (in each instance where the h prefix refers to human), or alternatively membrane homogenates from B16-F10 mouse melanoma cells containing endogenous murine MCR-1. In the examples that follow, all MCR-1 and MCR-4 values are for human recombinant receptors, unless otherwise noted. Assays were performed in 96 well polypropylene round-bottom plates (VWR catalog number 12777-030).
(§2) Membrane homogenates were incubated with 0.1 nM [I¹²⁵]-NDP-α-MSH (Perkin Elmer) and increasing concentrations of test peptides of the present invention in buffer containing 25 mM HEPES buffer (pH 7.5) with 100 mM NaCl, 2 mM CaCl₂, 2 mM MgCl₂, 0.3 mM 1,10-phenanthroline, and 0.2% bovine serum albumin. After incubation for 90 minutes at 37° C., the assay mixture was filtered onto GF/B Unifilter plates (Perkin-Elmer catalog number 6005177) and washed with 3 mL of ice-cold buffer per well. Filters were air dried and 35 μL of scintillation cocktail added to each well. Plates were counted in a Microbeta counter for bound radioactivity. […] Maximal specific binding (100%) was defined as the difference in radioactivity (cpm) bound to cell membranes in the absence and presence of 1 μM NDP-α-MSH. Each assay was conducted in duplicate and the actual mean values are described, with results less than 0% reported as 0%. Ki values for peptides of the present invention were determined using Graph-Pad PRISM® curve-fitting software.

[3] = target: T3, recombinant human melanocortin-4 receptor (hMCR-4) in membrane homogenates of HEK-293 cells (human, UniProt P32245 1-332); assay: competitive inhibition of [I125]-NDP-alpha-MSH, hMCR-4 HEK-293 membranes
T3 construct: whole, on cells; Used as membrane homogenates, not intact cells; also called MC-4
T3 sequence (P32245 whole entry): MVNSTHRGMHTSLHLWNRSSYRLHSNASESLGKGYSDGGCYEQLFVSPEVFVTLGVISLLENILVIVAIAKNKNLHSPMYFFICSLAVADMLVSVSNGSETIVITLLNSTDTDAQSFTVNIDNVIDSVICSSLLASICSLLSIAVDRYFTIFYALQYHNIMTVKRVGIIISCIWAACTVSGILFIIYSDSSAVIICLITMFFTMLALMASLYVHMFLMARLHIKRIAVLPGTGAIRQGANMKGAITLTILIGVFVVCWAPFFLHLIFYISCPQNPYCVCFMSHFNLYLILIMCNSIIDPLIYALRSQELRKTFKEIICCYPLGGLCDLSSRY
Protocol: as §1, §2

[4] = target: T1, human melanocortin-1 receptor (hMCR-1) …; assay: cell-based or functional assay; remark: listed apart in the source
[5] = target: T1, human melanocortin-1 receptor (hMCR-1) …; assay: cell-based or functional assay; remark: listed apart in the source
[6] = target: T1, human melanocortin-1 receptor (hMCR-1) …; assay: cell-based or functional assay; remark: listed apart in the source
[7] = target: T1, human melanocortin-1 receptor (hMCR-1) …; assay: cell-based or functional assay; remark: listed apart in the source
[8] = target: T1, human melanocortin-1 receptor (hMCR-1) …; assay: cell-based or functional assay; remark: listed apart in the source
[9] = target: T1, human melanocortin-1 receptor (hMCR-1) …; assay: cell-based or functional assay; remark: listed apart in the source
[10] = target: T1, human melanocortin-1 receptor (hMCR-1) …; assay: cell-based or functional assay; remark: listed apart in the source
[11] = target: T1, human melanocortin-1 receptor (hMCR-1) …; assay: cell-based or functional assay; remark: listed apart in the source
[12] = target: T1, human melanocortin-1 receptor (hMCR-1) …; assay: cell-based or functional assay; remark: listed apart in the source
[13] = target: T1, human melanocortin-1 receptor (hMCR-1) …; assay: cell-based or functional assay; remark: listed apart in the source
[14] = target: T1, human melanocortin-1 receptor (hMCR-1) …; assay: cell-based or functional assay; remark: listed apart in the source
[15] = target: T1, human melanocortin-1 receptor (hMCR-1) …; assay: cell-based or functional assay; remark: listed apart in the source
[16] = target: T1, human melanocortin-1 receptor (hMCR-1) …; assay: cell-based or functional assay; remark: listed apart in the source

Binder | Ki [2] [nM] | Ki [3] [nM] | further results
B1 | 6 | 7420 | MC-1 EC50 (average; cAMP HBL) [1]: 0.4 nM
B2 |  |  | MC-1 EC50 (average; cAMP HBL) [4]: 402 nM
B3 |  |  | MC-1 EC50 (average; cAMP HBL) [5]: 1 nM
B4 | 85 | 10000 | MC-1 EC50 (average; cAMP HBL) [6]: 4 nM
B5 | 340 | 10000 | MC-1 EC50 (average; cAMP HBL) [7]: 21 nM
B6 |  |  | MC-1 EC50 (average; cAMP HBL) [8]: 0.6 nM
B7 | 0.2 | 1740 | MC-1 EC50 (average; cAMP HBL) [9]: 0.02 nM
B8 | 185 | 20 | MC-1 EC50 (average; cAMP HBL) [10]: 9 nM
B9 | 20 | 1620 | MC-1 EC50 (average; cAMP HBL) [11]: 6 nM
B10 | 195 | 10000 | MC-1 EC50 (average; cAMP HBL) [12]: 8 nM
B11 | 43 | 10000 | MC-1 EC50 (average; cAMP HBL) [13]: 4 nM
B12 | 0.45 | 1180 | MC-1 EC50 (average; cAMP HBL) [14]: 0.04 nM
B13 |  |  | MC-1 EC50 (average; cAMP HBL) [15]: 0.17 nM
B14 | 6680 | 10000 | 
B15 |  |  | MC-1 EC50 (average; cAMP HBL) [16]: 2 nM
B16 | 5920 | 10000 | 
